Assay [1] has as its target T1, full-length UHRF1 (residues 1–793) (human, UniProt Q96T88 1-793).
T1 construct: human UHRF1, residues 1–793; monomer by gel filtration; also called wild-type UHRF1; ICBP90
T1 sequence (looked up): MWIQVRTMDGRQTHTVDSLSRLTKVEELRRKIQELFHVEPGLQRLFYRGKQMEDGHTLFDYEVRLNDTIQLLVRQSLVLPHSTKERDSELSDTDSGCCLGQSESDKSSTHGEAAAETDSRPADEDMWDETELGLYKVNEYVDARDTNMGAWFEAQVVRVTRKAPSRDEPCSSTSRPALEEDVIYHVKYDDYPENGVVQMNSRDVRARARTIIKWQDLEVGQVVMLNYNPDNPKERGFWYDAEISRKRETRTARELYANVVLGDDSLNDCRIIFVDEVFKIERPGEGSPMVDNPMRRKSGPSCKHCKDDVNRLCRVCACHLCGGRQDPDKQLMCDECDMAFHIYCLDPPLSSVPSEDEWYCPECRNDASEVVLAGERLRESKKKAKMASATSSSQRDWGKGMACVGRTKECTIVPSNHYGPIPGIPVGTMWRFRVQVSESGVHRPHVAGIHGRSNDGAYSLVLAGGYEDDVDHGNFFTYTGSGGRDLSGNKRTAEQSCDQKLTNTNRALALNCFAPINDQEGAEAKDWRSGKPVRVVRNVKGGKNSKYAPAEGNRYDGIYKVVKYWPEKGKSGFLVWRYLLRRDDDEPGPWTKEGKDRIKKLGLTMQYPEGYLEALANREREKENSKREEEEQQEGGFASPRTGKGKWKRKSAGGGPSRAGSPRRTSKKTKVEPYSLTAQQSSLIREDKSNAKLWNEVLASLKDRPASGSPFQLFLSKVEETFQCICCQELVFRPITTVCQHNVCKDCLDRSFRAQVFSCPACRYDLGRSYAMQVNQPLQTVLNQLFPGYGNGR
In words: ITC; 0.05 mM protein in the cell, 0.5 mM protein or peptide in the syringe, iTC200, 18 °C, 10 mM HEPES pH 8.0, 100 mM NaCl. As to conditions: both partners purified. Background: In ITC the heat of successive injections is recorded.

Assay [2] deals with T2, PHD of UHRF1 (residues 307–366) (human, UniProt Q96T88 307-366).
T2 construct: human UHRF1, PHD, residues 307–366; also called plant homeodomain; the isolated PHD
T2 sequence (looked up): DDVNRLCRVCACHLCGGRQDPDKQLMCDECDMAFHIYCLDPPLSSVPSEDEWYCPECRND
Described as above. As to conditions: both partners purified.

B1: H3 peptide (1–17) (peptide, UniProt P68431 2-18, looked up)
peptide: ARTKQTARKSTGGKAPR
notes: histone H3, residues 1–17; also called H3K9me0; unmethylated histone H3
The term Kd denotes the equilibrium constant for the complex coming apart. Read a low Kd as tighter binding. B1 came in with a Kd in assay [1] of 26 µM. Further, in assay [2], the “fold higher binding affinity than with full-length UHRF1” value is around 34 fold.

Values taken from paper PMC4822050, “Hemi-methylated DNA opens a closed conformation of UHRF1 to facilitate its histone recognition” (Nature Communications, 2016).
